Measurements: paper PMC2957411

How the values were obtained:
[1] = target: T1, His6-HrpL (alternative sigma factor);core RNA polymerase (Epicentre) (Dickeya dadantii 3937;) (UniProt E0SE58+P0A7Z4+P0A8V2+P0A8T7+P0A800); experiment: EMSA
[2] = target: T1, His6-HrpL (alternative sigma factor);core RNA polymerase (Epicentre) (Dickeya dadantii 3937;); experiment: competition

## AAGTATCTGCAACGGATGCCCGCTCCGATCCCGATGCGGGCATCATGATGGATACTGGTTAATGAGTGACGCCAGCGGTGAAACGGTTCCCTGCCGTCGCCGGTTCGCCGCAAAAAAAGAAACCG (double strand) [hrpN promoter fragment with hrp box]
[1]
  binding: binds

## CTTGGTGGCTGAGTCCATCTGGCCGTCGGTGATTGAGCTGATAGCATCGGTTTTCATTTTCTGCTCCTGGGCAGCGGTGGTCATCGCCGTGGTCGATGCCATGGTTTTGTCCAGAGACTGC (double strand) [hrpA ORF internal fragment (hrpAORF), no hrp box]
[2]
  binding: no binding

## GATTTCGCTATGAACTTTGCGACTTACACAGTCATCGTGTTCATAGATTAAGTAGGAGATAATGCGAGGTGGTTCCGAAAGATATTCACTTTTTTCCCCTGGTGGTGATAACAGGATACAGCC (double strand) [hrpA promoter fragment with hrp box]
[1]
  binding: binds
